Assay: yeast display, Sf9 membrane polyspecificity reagent, FACS + sequencing; frameworks hold sequencing errors
How it was run: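 After 36–48 hours of galactose induction, yeast (Saccharomyces cerevisiae BJ5465) displaying a synthetic nanobody library were stained at 4 °C for 1 hour with 10% biotinylated, detergent-solubilized Sf9 membrane reagent. Streptavidin microbeads enriched the stained cells before FACS sorting into low and high (top ~1%) gates on anti-HA and streptavidin fluorescence. Each clone's polyreactivity label reflects its gate of origin.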

| Sequence | polyreactivity (PSR sort gate) |
| --- | --- |
| QDQLVESGGGLVQAGGSLSLSCAAYGRIFSYNAMGWYRQAPGKERELVAAISYSGGRTYYADSVKGRFTISRDTAKNTVYLQMNSLKPEDTAVYYCAAEAHLAGYYRYYGGYGYDYWGQGTQVTVSS | high polyreactivity |
| QVQLVESGGGLVQAGGSLRLSCASSGYTFVYYAMGWYRQAPGKERELVAAINVSDGNTFYADSVKGRFTISRDNAKNTVYLQMNSLIPEDTAVYYCAADYYPYPPTSEYGYWGQGTQVTVSS | low polyreactivity |
| QVQLVESGGGLVQAGGSHRLSCAASGSIFTRNVMGWYRQAPGKERELVAAITSAGSTYYADSVKGRFTISRDNAKNNVYLQMTSLNPEDTAVYNCDAKVYYPYLFTSYDYWGQGTQVTVSS | high polyreactivity |
| QVQLVESGGGLVQAGGSLRLSCAASGSIFFYAMGWYRPAPGKERELVAAISWRGGSTYYADSVKGRFTISRDNAKNTVYLQMNSLKPEDTAVYYCAKATRRYDVYTYGYWGQGTQVTVSS | high polyreactivity |
| QVQLVESGGGLVQAGGSLRLSCAASGSTFEAYAMGWYRQAPGKERELVAAITRGSTYYADSVKGRFTISRDNAKNTVYLQMNSLKPEDTAVYYCNVDYSYNSGYDYWGQGTQVTVSS | high polyreactivity |
| QVQLVESGGGLVQAGGSLRLSCAASGFTLDRYAMGWYRQAPGKERELVAAITQSGVSTYYADSVKGRFTISRDNAKNTVYLQMNSLKPEDTAVYYCNALLRRTDYRYTWGYGYWGQGTQVTVSS | high polyreactivity |
| QVQLVESGGGLVQAGGSLRLSCAASGNIFYVYAMGWYRQAPGKERELVAVISRNDGSTYYADSVKGRFTISRDNAKNTVYLQMNSLKPEDTAVYYCNAEWYFWGQGTQVTVSS | low polyreactivity |
| QVQLVESGVCLVQAGGSLRLICAASGNTFYRYAMGWYRQAPGKERELVAAITGRGGSTYYADSVKGRFTISRDNAKNTVYLQMNSQKPEDTAVYYCAAESYGYGNDYWGQGTQVTVSS | low polyreactivity |
| QVQLVESGGGLVQAGGSLRLICAASGRIFPDYDMGWYRQAPGKERELVAAITQRGGSTYADSVKGRFTISRDNAKNTVYLQMNSLKPEDTAVYYCNARWQRPYDYWGQGTQVTVSS | low polyreactivity |
| QVQLVESGGGLVQAGGILRISCAASGRNLSRNAMGWYRQAPGKERELVAAISRSGSRTYYADSVKGRFTISRDNAKNSVYLLMNSLKPEDTAVYYCNAESYLSGWWYDYWGQGTQVTVSS | high polyreactivity |
| QVQLVETGGGLVQAGGSIRLTCAASGLTYTGNAIVWSRQAPGKEMECVAAIRWSAGSTYYADSVKGRFTISRDNAKNTVYLQMNSLKPEDTAVYYCNAALNVSGHYPNDYWGQGTQVTVSS | low polyreactivity |
| QVQLVESGGGLVQAGGSLRLSCAASGLIFGRNVMGWYRQAPGKERELVAAISWSGGRTYYADSVKGRFTISRDNAKNTVYLQMNSLKPEDTAVYYCAADDGPGFDYWGQGTQVTVSS | high polyreactivity |
| QVQLVESGGGLVQAGGSLRLICAASGSIFSSYAMGWYRQAPGTGRELVASISRRGGSTYYADSVKGRFTISRDNAKNTVYLQMNSLKPEDTAVYYCNASGGPYRYYYWGQGTQVTVSS | low polyreactivity |
| QVQLVESGGGLVQAGGSLRLSCAASGSIFANYAMGWYRQAPGKERELVAAITFSSGDSTYYADSVKGRFTISRDNAKNTVYLQMNSLKPEDTAVDYCATVTYGWSGYDYWGQGTQVTVSS | low polyreactivity |
| QVQLVESGGGLVQAGGSLRLSCAASGSIFGAYAMGWYRQAPGPESELVATITLRDGSTYYADSVKGRFTISRDNAKNTVYLQLNSLKPEDTAVYYCATYYSAINYGSSTTILYDYWGQGTQVSVSS | low polyreactivity |
| QVQLVESGGRLVQAGGSLRLSCAASGSIFYYYAKGLYRKAPVTARELVAAISTRGGRTYYADSVKGRFTISRDNAKTTVYLQMNSLKPEDTAVYYCNVPYYLPSYLSGYDYWGQGTQVTVSS | low polyreactivity |
| QVQLVESGGGLVQAGGSLRLSCAASGSTFVGYAMGWYRQAPGKERELDAALSANVGGTYYADSVKGRFTISRDNAKNTVYLQMNSLKPEVTAVYYCAADYAYNYFWRPGDYWGQGTQVTVSS | low polyreactivity |

From the nanobody polyreactivity screen of Harvey et al. (2022)
